Experimental findings from article PMC6044475 are described below.

Common to all, as to experiment: SEC
For orientation: SEC sorts molecules by how far they enter the pores of the column.

Experiment [1] addresses Eca E318Q (Enterococcus casseliflavus).
The target of experiment [2] is Eca T320A (Enterococcus casseliflavus).
Experiment [3] deals with Eca Y396A (Enterococcus casseliflavus).

On to Eca E318Q (natural protein), for which, in experiment [1], the stoichiometry N (usually a count of units in the complex or per binding partner) turned out to be 2. Eca T320A (natural protein): the stoichiometry N in experiment [2] was 2. In the case of Eca Y396A (natural protein), the stoichiometry N in experiment [3] amounted to 2.
